Experimental data reported in publication PMC11100747 (bioRxiv, 2024).

T1: Ric1 (S. cerevisiae, UniProt P40395 1-1056)
T1 sequence: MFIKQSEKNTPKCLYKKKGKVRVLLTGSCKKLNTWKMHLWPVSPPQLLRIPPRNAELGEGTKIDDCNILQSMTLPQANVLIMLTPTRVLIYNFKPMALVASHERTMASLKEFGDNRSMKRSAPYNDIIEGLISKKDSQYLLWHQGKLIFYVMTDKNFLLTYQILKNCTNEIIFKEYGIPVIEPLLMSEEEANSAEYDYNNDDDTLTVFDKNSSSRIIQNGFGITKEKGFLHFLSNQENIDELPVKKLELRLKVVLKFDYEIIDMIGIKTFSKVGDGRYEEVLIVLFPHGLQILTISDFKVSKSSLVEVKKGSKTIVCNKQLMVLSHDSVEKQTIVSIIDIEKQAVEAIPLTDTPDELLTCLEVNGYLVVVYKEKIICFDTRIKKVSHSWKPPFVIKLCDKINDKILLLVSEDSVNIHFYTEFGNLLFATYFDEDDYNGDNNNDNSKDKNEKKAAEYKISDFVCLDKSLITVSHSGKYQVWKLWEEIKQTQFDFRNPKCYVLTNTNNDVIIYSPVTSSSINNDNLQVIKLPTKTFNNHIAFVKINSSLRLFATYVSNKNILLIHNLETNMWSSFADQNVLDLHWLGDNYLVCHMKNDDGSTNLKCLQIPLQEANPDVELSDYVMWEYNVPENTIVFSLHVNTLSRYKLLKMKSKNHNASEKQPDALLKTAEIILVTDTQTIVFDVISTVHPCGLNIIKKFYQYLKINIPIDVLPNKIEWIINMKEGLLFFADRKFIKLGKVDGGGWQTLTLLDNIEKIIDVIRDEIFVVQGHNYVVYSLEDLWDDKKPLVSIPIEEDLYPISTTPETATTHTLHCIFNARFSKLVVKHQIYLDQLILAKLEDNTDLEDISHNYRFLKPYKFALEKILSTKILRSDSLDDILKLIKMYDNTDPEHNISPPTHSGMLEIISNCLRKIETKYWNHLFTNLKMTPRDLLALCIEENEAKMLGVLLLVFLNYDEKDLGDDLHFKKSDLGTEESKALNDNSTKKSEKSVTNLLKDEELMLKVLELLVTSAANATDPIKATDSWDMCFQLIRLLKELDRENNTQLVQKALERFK

T2: Gdi1 (yeast, UniProt P39958 1-451)
T2 sequence: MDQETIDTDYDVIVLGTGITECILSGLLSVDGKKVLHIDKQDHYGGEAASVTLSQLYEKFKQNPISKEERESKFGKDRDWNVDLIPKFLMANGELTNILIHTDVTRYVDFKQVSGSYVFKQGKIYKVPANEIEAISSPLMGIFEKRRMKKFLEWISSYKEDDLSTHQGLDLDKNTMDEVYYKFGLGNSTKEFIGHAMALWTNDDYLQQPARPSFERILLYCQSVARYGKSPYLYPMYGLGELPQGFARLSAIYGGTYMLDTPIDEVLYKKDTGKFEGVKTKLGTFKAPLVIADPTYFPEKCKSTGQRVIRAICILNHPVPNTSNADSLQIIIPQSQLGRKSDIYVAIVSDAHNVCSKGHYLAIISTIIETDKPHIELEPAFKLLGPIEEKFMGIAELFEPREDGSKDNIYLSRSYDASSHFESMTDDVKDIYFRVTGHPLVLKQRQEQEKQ

B1: Rgp1 (natural protein)
chain: MRAHRIDTFLIRENIKLEIIHESNSYFGGEHISIAFRFKHLGSQHELFNYKEKLLTVDKAVEEKLEQQAKVQDDGEGTMENQTWSLKSLLGAFKRTGEPEESVDVDNMKMLNESKMLREKIQKQMYFHQPVTLISGYVQISGVFQYDSEVISESKFKQDEVKMVGLDIVPGHTTNSVLALEDGEHFKGKRNLTNYLNSDYTNVTNGLLFSESGSRGRTGTYNERTLMISNDTSIKTLPLLLIPQTLLFSEISLEPGEVRTFYFKSTKLPKDICPSYSSSKVASINYTLEVGADVLSDDNIEKFSNRVPITIAPYISSNAEQYTSRLDKPAIILKTGNIKELKPRLFTRKVSTASAVSFGRRKSSIIDIDSPLEDNEFVKRVKKNFIELVESNQNVSRDIDELIDLQMGVQFGKDEDSSDPEPNDSHFSNEMVTSAESSLRSDAVTKRRKSYSVRDNISNLEQKMWNDCSLVKSDENSNLLPQLINLQNAYQINRNNETMAKVSLSAPFYKTTDDINLVIELDPITTPLLKVTSLTVSLESFEIINPKYKTEGKGIGSKPKGNSVYEKHFICFDECKSVSVKLLPPRSPTNQITGQFKTDVFQHKWMIGLKFVIIAKTESITLDQFYEDKKGILFHSKENLEGEEFTCYVPIPILCTSEDFMGW
B2: prenylated Rab6-mantGDP (natural protein)
chain: MSRSGKSLTKYKIVFLGEQGVGKTSLITRFMYDTFDDHYQATIGIDFLSKTMYLDDKTIRLQLWDTAGQERFRSLIPSYIRDSRVAIIVYDITKRKSFEYIDKWIEDVKNERGDENVILCIVGNKSDLSDERQISTEEGEKKAKLLGAKIFMETSTKAGYNVKALFKKIAKSLPEFQNSESTPLDSENANSANQNKPGVIDISTAEEQEQSACQC
modifications: C-terminal cysteines prenylated (geranylgeranyl)

Legend:
Ric1 = target: T1, Ric1; experiment: cryo-EM structure
Gdi1 = target: T2, Gdi1; experiment: SEC

Row | Binder | binding result (Ric1) | binding result (Gdi1)
1 | B1 | binds | –
2 | B2 | – | binds
